The text below walks through data of paper PMC10413271.

Assay [1] concerns the target NiV full-length glycoprotein G (NiV-G) expressed from Ad5-NiVG (Nipah virus, Bangladesh strain (NiV-Bd)). Description: Western blot (ProteinSimple capillary system). (In general: Immunoblotting shows a protein as a band on a membrane.)
Assay [2] deals with NiV-soluble external domain glycoprotein G (NiV-Ge) expressed from Ad5-NiVGe (Nipah virus, Bangladesh strain (NiV-Bd)). Description: Western blot (ProteinSimple capillary system).

“And” between values parts separate entries of the source, which are not always exact repeats. Equal entries are not always repeated.

A word on the stoichiometry N: it is the number of molecules, sites or subunits per partner or assembly. On to “NiV full-length glycoprotein G (NiV-G) expressed from Ad5-NiVG (natural protein)”, for which the stoichiometry N in assay [1] turned out to be 2.

Turning to “NiV-soluble external domain glycoprotein G (NiV-Ge) expressed from Ad5-NiVGe (domain or fragment)”, the stoichiometry N in assay [2] is 2 and 4.
